According to a protein production outcome set (Wang et al. 2014):

Test: label from the status in PepcDB records

Sequence | protein production
MSVFAKVVELGSFTAAARQLQMSVSSISQTVAKLEDELQVKLLNRSTRSLGLTEAGKIYYQGCRRMLFEAQDVHEQLYAFNNTPIGTLRIGCSSTMAQNVLARITAKMLKEYPGLSVNLVTGIPAPDLIADGLDVVIRVGALQDSSLFSRRLGSMPMVLCAAKSYLAQAGNPEKPADLAGHAWLEYSVRPDNEFVIIAPEGISTRLTPQGRFVTNDPMTLVRWLTAGVGIAYVPLMWAIEEINRGELEILLPSYQSDPRPVYALYTEKDKLPLKVQVCINYLTEYFVDVAKIYQGMHGRGIAR | failed
MGAAAAPEVNMELVGHFGGTTDAVDVAGNYAYVGQGQDFLILDITNPSSPVLVSKIMTEGFVRDIKVSRNYAYVADDDNGLVIVDISNPSSPTLKGSYNIPGYTYCITVSGNYAYVADNDGLVIVDISNPSDPILKGRYAGPTGDVAVYGNYAYVADWGNGLMIVDISNPSSPVLKGSYDTAGDIYGVSISGNYAYVADGDTGLVIVDISNPSSPTLKGNYNTAGIACDVSVLGNYAYVADNDNGLVIVDISDPSSPVLKGNGSTTGYAHGIEVSGNYAYVANSNTGLVIVDISNPSSPTLKGSCDTIVRAKSIAVSGNYAYIADWDNGLVIVDISNPSSPFLKGSCDTPRSAQGVAVSGNYAYVADDDGLVIVDISNPSFPILNKSYNTGGWAQGITVSGNYAYVIDMANGIFIVDISNPSSPILEGMYDTSPIIIENYDYTGSIWSVSVSGNYAYVADEGNGLLIVDISNPSSPILKGSYDTAGLAYDVAVSGNYAYVADSKNGLAIIDISNPSSPILVGNYNTSGYAECVSISGNYAYVAVDDSLVVVDISNPSSPILKGLYAGSAGDIAVSGNYVYASEGVNGLVILKANPESAFTVADFSSNITSGYAPLSIQFNDHSQNATSWNWDFGDGYNSTNQNPIHTYSSAGTYTVNLTVINENRTASKVAKIFVLNTSLEHHHHHH | failed
EDGLFSVVLPFMSSFLLDPNAADPGYLKTRDYLTYNGVTTVADMNTGGTNWELEISALKRNLDTPESPIRVRLTPDVMKLAAALKSPEAAMTLVNQMKQHNTDNLVFNGGIKLFADGAMFSQAMQINAPGYIDGHKGEWITQPSSFVEFARSYWNAGYQIHVHTNGDGGAKMVLDTLQELENDKPRADHRFTVEHYGYADDGTSRRIAKLDAQVSANPFYLFDLGDRYAENGLGFDRAARIAPLGGLASRNVPVALHSDFPMAPAEPLFLAWTAMSRETLSGKVFSPSERLTLDQAIRAITIDAAYMIGMENE | failed
MTSLRRRCIRQVPNTLTVGRFALVPVAAGFIWTGDLRAAFWVFVAAGITDALDGWLARVLDARTALGATLDPLADKALLVATFFTLALTGAIPLWLLGLVALRDALILAGFAWLRLRAGRPIRVTPNILGKANTLAQILLCAAVIGASAFTLDLSAVIAVLTPVVAATTIISGIAYLRMWLRRGWDGQQAHDRIERTRRNNQQRDDR | failed
MKQHILVLEDANQRRTIILDEQQYSIGRHSGTSIQIHSRQASRHHATLMRKTNSKTNEECFWIIDGDLEGNKSQNGVFVNGEKRLIHELKNGDLINFGCSINASYHVTGEGFGESSSQPVEILPQTSPYNEAVSAQIASSYNTREGVDLLAGSNDETFHEQSYLDTATDLPNQTLFLEYLNIALSNARRHHAQVGVLLCQINNWSDLKRKRGDAVANAFLQEAGQKLKSNLRNGDIVSRWDKDEFIFLVSKVQDTSSLLGIAQRLMKPVLAPVTAGGRPFQPEITYGVALYPVDGEQVNDLIGHIRENLQQLLPQPTNPGSGEADDHIETAVDVRIGAPQPVPGLSDSDQKRLAIVEKRLLRALEQHELELYYQPQINWRKKTIEAMEAFIRWQHPQKGLLPPGQFLPWSDQTEFMVPLTRWILETACQQNVLWQQQLQTPFLVSVNISEKQFYHPLLKNMVMEAIAMAKMETHYLELEIQESTVMKDFGLAQQIITNLHNYGVGFSLDDFGTDYMSLRCLQDLPFQKLKIDKSLTAQLLEQTDNVPNLTMMETLINLGKTFNLKVVAEGVEQEEQINILDSLNCFFMQGYCFSEPLNILAANSFLHKYIAGN | failed
AIAKETEQVSEAPHGLEGAWLDLTNRVRVSGDTVEACSAFSIGPPRCRWLLQATDRGVNCAALDHYVPHICGTHTETVYHIAHHRYIKRAVCEIPFFRFHKARIQVCTAKIACTEQVLPSADTDYPCLEPNDLIVGPSALNRAPRYTRAQDSTIEALILIVVGPDGTSDWRDGKLDDRPPYLTPAAIESLATRYPNMRHLLTNLPSVDRRRDGGLVRSHRAFFATDFAGDGTPSESPQKTITELLRVPPDWQLYDDAEGVVCISLAPIEGLDAIPSSVYFKSH | failed
MGIQETDPLTQLSLPPGFRFYPTDEELMVQYLCRKAAGYDFSLQLIAEIDLYKFDPWVLPNKALFGEKEWYFFSPRDRKYPNGSRPNRVAGSGYWKATGTDKIISTEGQRVGIKKALVFYIGKAPKGTKTNWIMHEYRLIEPSRRNGSTKLDDWVLCRIYKKQSSAQKQVYDNGIANAREFSNNGTSSTTSSSSHFEDVLDSFHQEIDNRNFQFSNPNRISSLRPDLTEQKTGFHGLADTSNFDWASFAGNVEHNNSVPELGMSHVVPNLEYNCGYLKTEEEVESSHGFNNSGELAQKGYGVDSFGYSGQVGGFGFM | failed
MRTLRSLMLAAALAVALAVTGFAASPLPSAYAKYAAGPTKILPLQRAFPLDELVELSELRARDRVRHARILLGGGRQSSVGGVVDFPVQGSSDPYLVGLYFTKVKLGSPPTEFNVQIDTGSDILWVTCSSCSNCPHSSGLGIDLHFFDAPGSLTAGSVTCSDPICSSVFQTTAAQCSENNQCGYSFRYGDGSGTSGYYMTDTFYFDAILGESLVANSSAPIVFGCSTYQSGDLTKSDKAVDGIFGFGKGKLSVVSQLSSRGITPPVFSHCLKGDGSGGGVFVLGEILVPGMVYSPLVPSQPHYNLNLLSIGVNGQMLPLDAAVFEASNTRGTIVDTGTTLTYLVKEAYDLFLNAISNSVSQLVTPIISNGEQCYLVSTSISDMFPSVSLNFAGGASMMLRPQDYLFHYGIYDGASMWCIGFQKAPEEQTILGDLVLKDKVFVYDLARQRIGWASYDCKCNHRVMSYRKL | failed
MPALCSTVQTLEKLAKDDVSSLALLGRSVMHDNALTSRILRVANSAIYHKGSTQISTVSRAAIVLGFDAVRNICITAQLLSSLLESKNLAPSVYQRLIKLMAKAFQAAMLTRMMLSDYDDDIQEEAFIACLLFHIGESAFWSIGGEFTETLDSQLTECETSADERSLIRETIGTSFSQLTQSIARHWGLGELLIQAVNYPDDPRPEIRSIFLADKLCDTLSVATPDKNDLEKYINQAANFTGLDETEFTLKMQRCTKATHKLAEAYGAKVLIDYLPDPQRIDKLEPYLPEAELPIFEANLNVQLVKLRELTAFAINKADFNQIMQTVLEGILEGVGVDRCGVLLLSPSRKQLQPRIMLGRDAEEMKRQFIIELGDRKGLFPMAMEHKESLWVDSPCAKKWQEQCRELKVQLPESGFLVAPLLVDNKVIGFYYADRGPSERCFAEVDFQAFIHFSQLANVCFTVSLK | failed
MKGLFKNKSRLPGEIVRQTRDLIALAESEEEETDARNSKRLGICAELCRNIRDLKSILYGNGEAEPVPEACLLLTQEFFRADTLRPLIKSIPKLDLEARKDATQIVANLQKQQVEFRLVASEYLESNLDVIDSLVEGIDHDHELALHYTGMLKECVRHQVVAKYILESKNLEKFFDYVQLPYFDVATDASKIFRELLTRHKSTVAEYLAKNYEWFFAEYNTKLLEKGSYFTKRQASKLLGDVLMDRSNSGVMVKYVSSLDNLRIMMNLLREPTKNIQLEAFHIFKLFVANENKPEDIVAILVANRTKILRLFADLKPEKEDVGFETDKALVMNEIATLSLLDIKTADR | failed
PEKPAKTQKTSLDEALQWRDSLDKLLQNNYGLASFKSFLKSEFSEENLEFWIACEDYKKIKSPAKMAEKAKQIYEEFIQTEAPKEVNIDHFTKDITMKNLVEPSLSSFDMAQKRIHALMEKDSLPRFVRSEFYQELI | not failed
MSRPTVSVIIPTHNRAKLLKRAIISVLNQTFEDFEIIVVDDASSDNTPNIIESIKDSRIRYIRLEKNSGAPTARNIGIKKARGKFIALLDDDDEWLPRKLEVQVKKFNELEKKFGVVYGGFYYVSQQNERIIGKRLPRFRGNVYGELLKENFIGSPTVLIRRECFKKAGLFDPKLPSSQDWDMWVRIARYYYFDYIVAKYYVHGHQISFNINEKYIPGREIFISKHKDIANNPKILSMHLTQMGLLSILGGNIEKGVKYLAQSITISPLNIDSYKKVIELTLDSRFLEYVKNILHANYLEHHHHHH | failed
MVQIIFDSKTGNVQRFVNKTGFQQIRKVDEMDHVDTPFVLVTYTTNFGQVPASTQSFLEKYAHLLLGVAASGNKVWGDNFAKSADTISRQYQVPILHKFELSGTSKDVELFTQEVERVVTKSSAKMDPVK | not failed
MEMTNAQRLILSNQYKMMTMLDPANAERYRRLQTIIERGYGLQMRELDREFGELKEETCRTIIDIMEMYHALHVSWSNLQDQQSIDERRVTFLGFDAATEARYLGYVRFMVNVEGRYTHFDAGTHGFNAQTPMWEKYQRMLNVWHACPRQYHLSANEINQIINA | not failed
MAPIFRNYRFAIGAFAVIMLILLIKTSSIGPPSIARTVTPNASIPKTPEDISILPVNDEPGYLQDSKTEQNYPELADAVKSQTSQTCSEEHKYVIMIDAGSTGSRVHIYKFDVCTSPPTLLDEKFDMLEPGLSSFDTDSVGAANSLDPLLKVAMNYVPIKARSCTPVAVKATAGLRLLGDAKSSKILSAVRDHLEKDYPFPVVEGDGVSIMGGDEEGVFAWITTNYLLGNIGANGPKLPTAAVFDLGGGSTQIVFEPTFPINEKMVDGEHKFDLKFGDENYTLYQFSHLGYGLKEGRNKVNSVLVENALKDGKILKGDNTKTHQLSSPCLPPKVNATNEKVTLESKETYTIDFIGPDEPSGAQCRFLTDEILNKDAQCQSPPCSFNGVHQPSLVRTFKESNDIYIFSYFYDRTRPLGMPLSFTLNELNDLARIVCKGEETWNSVFSGIAGSLDELESDSHFCLDLSFQVSLLHTGYDIPLQRELRTGKKIANKEIGWCLGASLPLLKADNWKCKIQSA | failed
MSILHTVNKSPFERNSLESCLKFATEGASVLLFEDGIYAALAGTRVESQVTEALGKLKLYVLGPDLKARGFSDERVIPGISVVDYAGFVDLTTECDTVQAWL | not failed
MNRVEPPYDVKEALVFTQKMAQLSKALWKSIEKDWQQWLKPYDLNINEHHILWIAYQLNGASISEIAKFGVMHVSTAFNFSKKLEERGYLRFSKRLNDKRNTYVQLTEEGTEVFWSLLEEFDPTRNAVFKGSQPLYHLFGKFPEVAEMMCMIRHIYGDDFMEIFETSLTNIDNDFESVNGKLKKKAKDSAADEPAEELEPVNS | not failed
MRVASDAGDAETLLAAVPANQRVAIVDARFVGHLHALRLGLTDPRFEAAALAGAVSAQPGARQALTRALARESSAATGGATVVMDNLAERITAALDADGVQVHRPDLGTLVAAVPADPQARNEVRQAVTAVDDEAVRLRTAVKSRDGFFTTHFISPYSRYLARWCARRGLTPNQVTTASLLTALVAAGCAATGTRAGFVAAGLLLLFSFVLDCADGQLARYSLQYSTLGAWLDATFDRAKEYAYYAGLALGAARGGDDVWALALGAMVLQSCRHIVDFSFNEANHDATANTSPTAALSDKLDSVGWTVWLRRMIVLPIGERWAMIAVLTALTTPRITFYALLIGCAFAATYTTAGRVLRSLTRKARRTDRAAQALADLTDSGPLAEFLTRFARRLRLRGPACVALVTGALVVLAAALAPYGSWWPVLAAVTYVLLSPVALLKPLKGALDWLVPPFYRAAEYGTVLVLAAKADVNGALPAAFGLVAAVAYHHYDTVYRIRGNAGAPPHWLVRAIGGHEGRTLLVTVLAALLVPTDFKVALTALAVAVALVVLVESIRFWVSSQAPAVHDEGEPA | failed
MAMGRTTQFTLDEVAKHADKDSCWLVIDGKVYAVEKFLNEHPGGEDVLLETAGRDATREFEDVGHSKSAREQLKEFYIGDVREPTAEELAAKRAVQASAAAERRDGDGVRANGLGKERLFAGGAFGAEPLSGGSSTWTLLKRLFVPVCIAVLVYLVREYSKQVQTGG | not failed
